We go through 20 molecules from patent publication US20260274985A1 (MYTHIC THERAPEUTICS, published 2026).

In experiment [1] the target is T1, Human TROP2 Protein, His Tag (Acro Biosystems) (human, UniProt P09758 27-274).
T1 construct: not shown: His tag
T1 sequence (looked up): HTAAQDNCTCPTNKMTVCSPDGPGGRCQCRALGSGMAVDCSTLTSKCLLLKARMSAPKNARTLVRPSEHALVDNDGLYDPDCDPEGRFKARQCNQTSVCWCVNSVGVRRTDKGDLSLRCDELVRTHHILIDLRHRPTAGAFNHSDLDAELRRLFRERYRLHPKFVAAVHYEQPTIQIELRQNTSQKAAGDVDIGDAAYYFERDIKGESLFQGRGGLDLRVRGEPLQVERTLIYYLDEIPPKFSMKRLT
The experiment can be described thus: BLI (Octet). (In general: In BLI a coated tip is dipped into the sample, and binding shifts an interference pattern.)

The target of experiment [2] is T2, Human TROP2 Protein, His Tag (Acro Biosystems) (human, UniProt P09758 27-274).
T2 construct: Soluble analyte of the Octet assay; also called TACSTD2; not shown: His tag
T2 sequence (looked up): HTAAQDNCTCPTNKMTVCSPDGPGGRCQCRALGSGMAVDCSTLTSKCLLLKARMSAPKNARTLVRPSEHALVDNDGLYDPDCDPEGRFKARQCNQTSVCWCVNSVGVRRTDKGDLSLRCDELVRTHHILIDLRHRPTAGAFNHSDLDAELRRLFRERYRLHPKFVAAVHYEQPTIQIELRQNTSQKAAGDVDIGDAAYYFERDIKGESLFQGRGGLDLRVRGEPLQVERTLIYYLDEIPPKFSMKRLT
The experiment can be described thus: BLI (Octet) [1/2].

B1: MYT12295 (antibody, V domains shown)
VH: QVQLQQSGSELKKPGASVKVSCKASGYTFTNHGMNWVKQAPGQGLKWMGWINTYTGEPTHTDDFKGRFAFSLDTSVSTAYLQISSLKADDTAVYFCARGGFGSSYWYFDVWGQGSLVTVSS
VL: DIQLTQSPSSLSASVGDRVSITCKASQDVSIAVAWYQQKPGKAPKLLIYSASYRYTGVPDRFSGSGSGTDFTLTISSLQPEDFAVYYCQQHYITPLTFGAGTKVEIK
notes: sacituzumab VH 32, 60 -> H
In the case of B1, the binding result in experiment [1] is reported as “binds”.

B2: MYT12298 (antibody, V domains shown)
VH: QVQLQQSGSELKKPGASVKVSCKASGYTFTNHGMNWVKQAPGQGLKWMGWINTYTGEPTYTDDHKGRFAFSLDTSVSTAYLQISSLKADDTAVYFCARGGFGSSYWYFDVWGQGSLVTVSS
VL: DIQLTQSPSSLSASVGDRVSITCKASQDVSIAVAWYQQKPGKAPKLLIYSASYRYTGVPDRFSGSGSGTDFTLTISSLQPEDFAVYYCQQHYITPLTFGAGTKVEIK
notes: sacituzumab VH 32, 64 -> H
Take B2: the binding result in experiment [1] was “binds”.

B3: MYT12347 (antibody, V domains shown)
VH: QVQLQQSGSELKKPGASVKVSCKASGYTFTNYGMNWVKQAPGQGLKWMGWINTYTGEPTYTDDFKGRFAFSLDTSVSTAYLQISSLKADDTAVYFCARGGFGSSYWYFDVWGQGSLVTVSS
VL: DIQLTQSPSSLSASVGDRVSITCKASQDVSIAVAWYQQKPGKAPKLLIYSHHYRYTGVPDRFSGSGSGTDFTLTISSLQPEDFAVYYCQQHYITPLTFGAGTKVEIK
notes: sacituzumab VL 51, 52 -> H
On to B3, for which the binding result in experiment [1] was “binds”.

B4: MYT12343 (antibody, V domains shown)
VH: QVQLQQSGSELKKPGASVKVSCKASGYTFTNYGMNWVKQAPGQGLKWMGWINTYTGEPTYTDDFKGRFAFSLDTSVSTAYLQISSLKADDTAVYFCARGGFGSSYWYFDVWGQGSLVTVSS
VL: DIQLTQSPSSLSASVGDRVSITCKASQDVSIAHAWYQQKPGKAPKLLIYSASYRYTGVPDRFSGSGSGTDFTLTISSLQPEDFAVYYCHQHYITPLTFGAGTKVEIK
notes: sacituzumab VL 33, 89 -> H
In the case of B4, in experiment [1], the binding result is “binds”.

B5: MYT12310 (antibody, V domains shown)
VH: QVQLQQSGSELKKPGASVKVSCKASGYTFTNYGMNWVKQAPGQGLKWMGWINTYTGEPTHTDDFHGRFAFSLDTSVSTAYLQISSLKADDTAVYFCARGGFGSSYWYFDVWGQGSLVTVSS
VL: DIQLTQSPSSLSASVGDRVSITCKASQDVSIAVAWYQQKPGKAPKLLIYSASYRYTGVPDRFSGSGSGTDFTLTISSLQPEDFAVYYCQQHYITPLTFGAGTKVEIK
notes: sacituzumab VH 60, 65 -> H
Regarding B5, in experiment [1], the binding result was “binds”.

B6: MYT12354 (antibody, V domains shown)
VH: QVQLQQSGSELKKPGASVKVSCKASGYTFTNYGMNWVKQAPGQGLKWMGWINTYTGEPTYTDDFKGRFAFSLDTSVSTAYLQISSLKADDTAVYFCARGGFGSSYWYFDVWGQGSLVTVSS
VL: DIQLTQSPSSLSASVGDRVSITCKASQDVSIAVAWYQQKPGKAPKLLIYSAHYRYTGVPDRFSGSGSGTDFTLTISSLQPEDFAVYYCHQHYITPLTFGAGTKVEIK
notes: sacituzumab VL 52, 89 -> H
Regarding B6, the binding result in experiment [1] is listed as “binds”.

B7: MYT12348 (antibody, V domains shown)
VH: QVQLQQSGSELKKPGASVKVSCKASGYTFTNYGMNWVKQAPGQGLKWMGWINTYTGEPTYTDDFKGRFAFSLDTSVSTAYLQISSLKADDTAVYFCARGGFGSSYWYFDVWGQGSLVTVSS
VL: DIQLTQSPSSLSASVGDRVSITCKASQDVSIAVAWYQQKPGKAPKLLIYSHSHRYTGVPDRFSGSGSGTDFTLTISSLQPEDFAVYYCQQHYITPLTFGAGTKVEIK
notes: sacituzumab VL 51, 53 -> H
For the molecule B7, the binding result in experiment [1] is recorded as “binds”.

B8: MYT12318 (antibody, V domains shown)
VH: QVQLQQSGSELKKPGASVKVSCKASGYTFTNYGMNWVKQAPGQGLKWMGWINTYTGEPTYTDHFKHRFAFSLDTSVSTAYLQISSLKADDTAVYFCARGGFGSSYWYFDVWGQGSLVTVSS
VL: DIQLTQSPSSLSASVGDRVSITCKASQDVSIAVAWYQQKPGKAPKLLIYSASYRYTGVPDRFSGSGSGTDFTLTISSLQPEDFAVYYCQQHYITPLTFGAGTKVEIK
notes: sacituzumab VH 63, 66 -> H
For the molecule B8, the binding result in experiment [1] is “binds”.

B9: MYT12346 (antibody, V domains shown)
VH: QVQLQQSGSELKKPGASVKVSCKASGYTFTNYGMNWVKQAPGQGLKWMGWINTYTGEPTYTDDFKGRFAFSLDTSVSTAYLQISSLKADDTAVYFCARGGFGSSYWYFDVWGQGSLVTVSS
VL: DIQLTQSPSSLSASVGDRVSITCKASQDVSIAHAWYQQKPGKAPKLLIYSASYRYTGVPDRFSGSGSGTDFTLTISSLQPEDFAVYYCQQHYHTPLTFGAGTKVEIK
notes: sacituzumab VL 33, 93 -> H
As to B9, in experiment [1], the binding result was “binds”.

B10: MYT12319 (antibody, V domains shown)
VH: QVQLQQSGSELKKPGASVKVSCKASGYTFTNYGMNWVKQAPGQGLKWMGWINTYTGEPTYTDDHHGRFAFSLDTSVSTAYLQISSLKADDTAVYFCARGGFGSSYWYFDVWGQGSLVTVSS
VL: DIQLTQSPSSLSASVGDRVSITCKASQDVSIAVAWYQQKPGKAPKLLIYSASYRYTGVPDRFSGSGSGTDFTLTISSLQPEDFAVYYCQQHYITPLTFGAGTKVEIK
notes: sacituzumab VH 64, 65 -> H
As to B10, in experiment [1], the binding result was “binds”.

B11: MYT12306 (antibody, V domains shown)
VH: QVQLQQSGSELKKPGASVKVSCKASGYTFTNYHMNWVKQAPGQGLKWMGWINTYTGEPTYTDDFKHRFAFSLDTSVSTAYLQISSLKADDTAVYFCARGGFGSSYWYFDVWGQGSLVTVSS
VL: DIQLTQSPSSLSASVGDRVSITCKASQDVSIAVAWYQQKPGKAPKLLIYSASYRYTGVPDRFSGSGSGTDFTLTISSLQPEDFAVYYCQQHYITPLTFGAGTKVEIK
notes: sacituzumab VH 33, 66 -> H
On to B11, for which the binding result in experiment [1] was “binds”.

B12: MYT13246 (antibody, V domains shown)
VH: QVQLQQSGSELKKPGASVKVSCKASGYTFTNYGMNWVKQAPGQGLKWMGWINTYTGEPTYTDDFHGRFAFSLDTSVSTAYLQISSLKADDTAVYFCARGGFGSSYWYFDVWGQGSLVTVSS
VL: DIQLTQSPSSLSASVGDRVSITCKASQDVSIAVAWYQQKPGKAPKLLIYSHSYRYTGVPDRFSGSGSGTDFTLTISSLQPEDFAVYYCHQHYITPLTFGAGTKVEIK
notes: Sacituzumab HC-LC pairing variant; IgG
Take B12: the binding result in experiment [2] is recorded as “binds”.

B13: MYT13247 (antibody, V domains shown)
VH: QVQLQQSGSELKKPGASVKVSCKASGYTFTNYGMNWVKQAPGQGLKWMGWINTYTGEPTYTDDFKHRFAFSLDTSVSTAYLQISSLKADDTAVYFCARGGFGSSYWYFDVWGQGSLVTVSS
VL: DIQLTQSPSSLSASVGDRVSITCKASQDVSIAVAWYQQKPGKAPKLLIYSHSYRYTGVPDRFSGSGSGTDFTLTISSLQPEDFAVYYCHQHYITPLTFGAGTKVEIK
notes: as for B12
Consider B13, for which the binding result in experiment [2] is “binds”.

B14: MYT12349 (antibody, V domains shown)
VH: QVQLQQSGSELKKPGASVKVSCKASGYTFTNYGMNWVKQAPGQGLKWMGWINTYTGEPTYTDDFKGRFAFSLDTSVSTAYLQISSLKADDTAVYFCARGGFGSSYWYFDVWGQGSLVTVSS
VL: DIQLTQSPSSLSASVGDRVSITCKASQDVSIAVAWYQQKPGKAPKLLIYSHSYRYTGVPDRFSGSGSGTDFTLTISSLQPEDFAVYYCHQHYITPLTFGAGTKVEIK
notes: sacituzumab VL 51, 89 -> H
Take B14: the binding result in experiment [1] is on record as “binds”.

B15: MYT12302 (antibody, V domains shown)
VH: QVQLQQSGSELKKPGASVKVSCKASGYTFTNYHMNWVKQAPGQGLKWMGWINTYTGEPTYTHDFKGRFAFSLDTSVSTAYLQISSLKADDTAVYFCARGGFGSSYWYFDVWGQGSLVTVSS
VL: DIQLTQSPSSLSASVGDRVSITCKASQDVSIAVAWYQQKPGKAPKLLIYSASYRYTGVPDRFSGSGSGTDFTLTISSLQPEDFAVYYCQQHYITPLTFGAGTKVEIK
notes: sacituzumab VH 33, 62 -> H
Take B15: the binding result in experiment [1] is “binds”.

B16: MYT12342 (antibody, V domains shown)
VH: QVQLQQSGSELKKPGASVKVSCKASGYTFTNYGMNWVKQAPGQGLKWMGWINTYTGEPTYTDDFKGRFAFSLDTSVSTAYLQISSLKADDTAVYFCARGGFGSSYWYFDVWGQGSLVTVSS
VL: DIQLTQSPSSLSASVGDRVSITCKASQDVSIAHAWYQQKPGKAPKLLIYSASHRYTGVPDRFSGSGSGTDFTLTISSLQPEDFAVYYCQQHYITPLTFGAGTKVEIK
notes: sacituzumab VL 33, 53 -> H
On to B16, for which the binding result in experiment [1] is “binds”.

B17: MYT12358 (antibody, V domains shown)
VH: QVQLQQSGSELKKPGASVKVSCKASGYTFTNYGMNWVKQAPGQGLKWMGWINTYTGEPTYTDDFKGRFAFSLDTSVSTAYLQISSLKADDTAVYFCARGGFGSSYWYFDVWGQGSLVTVSS
VL: DIQLTQSPSSLSASVGDRVSITCKASQDVSIAVAWYQQKPGKAPKLLIYSASHRYTGVPDRFSGSGSGTDFTLTISSLQPEDFAVYYCHQHYITPLTFGAGTKVEIK
notes: sacituzumab VL 53, 89 -> H
Consider B17, for which the binding result in experiment [1] was “binds”.

B18: MYT13248 (antibody, V domains shown)
VH: QVQLQQSGSELKKPGASVKVSCKASGYTFTNHGMNWVKQAPGQGLKWMGWINTYTGEPTYTDDFKGRFAFSLDTSVSTAYLQISSLKADDTAVYFCARGGFGSSYWYFDVWGQGSLVTVSS
VL: DIQLTQSPSSLSASVGDRVSITCKASQDVSIAVAWYQQKPGKAPKLLIYSAHYRYTGVPDRFSGSGSGTDFTLTISSLQPEDFAVYYCQQHYHTPLTFGAGTKVEIK
notes: as for B12
For the molecule B18, the binding result in experiment [2] was “binds”.

B19: MYT12320 (antibody, V domains shown)
VH: QVQLQQSGSELKKPGASVKVSCKASGYTFTNYGMNWVKQAPGQGLKWMGWINTYTGEPTYTDDHKHRFAFSLDTSVSTAYLQISSLKADDTAVYFCARGGFGSSYWYFDVWGQGSLVTVSS
VL: DIQLTQSPSSLSASVGDRVSITCKASQDVSIAVAWYQQKPGKAPKLLIYSASYRYTGVPDRFSGSGSGTDFTLTISSLQPEDFAVYYCQQHYITPLTFGAGTKVEIK
notes: sacituzumab VH 64, 66 -> H
Take B19: the binding result in experiment [1] is “binds”.

B20: MYT12297 (antibody, V domains shown)
VH: QVQLQQSGSELKKPGASVKVSCKASGYTFTNHGMNWVKQAPGQGLKWMGWINTYTGEPTYTDHFKGRFAFSLDTSVSTAYLQISSLKADDTAVYFCARGGFGSSYWYFDVWGQGSLVTVSS
VL: DIQLTQSPSSLSASVGDRVSITCKASQDVSIAVAWYQQKPGKAPKLLIYSASYRYTGVPDRFSGSGSGTDFTLTISSLQPEDFAVYYCQQHYITPLTFGAGTKVEIK
notes: sacituzumab VH 32, 63 -> H
As for B20, in experiment [1], the binding result was “binds”.
